Assay results reported in US20040022780A1, “Serine protease and topical retinoid compositions useful for treatment of acne vulgarise and production of anti-aging effects” (priority 1997, published 2004).

Key:
[1] = test system: follicular epithelium of Rhino mouse skin; assay: TUNEL stain of skin for apoptotic bodies; assay type: in vivo; details: 0.1% (w/v) trypsin daily for five days, sacrificed at day eight
Experimental: Rhino mice of Example 1 were treated daily with a 0.1% (w/v) trypsin composition of Example 2 for five days and sacrificed at day eight.
1 cm by 2 cm samples of the skins of untreated, vehicle treated, and trypsin treated mice were obtained via the procedure set forth in Example 3 then analyzed using a TdT-mediated dUTP-biotin nick end labeling (“TUNEL”) stain procedure as disclosed in Gavrieli et al., “Identification of Programmed Cell Death in situ Via Specific Labeling of Nuclear DNA Fragmentation”, 119 Jl. Cell Biology 493-501 (1992) (“Gavrieli”). During this procedure, the prepared skin sections were stained using an “ApopTag™ Plus In Situ Apoptosis Detection Kit” available from Oncor, Inc. as specified in the “ApopTag™ Plus In Situ Apoptosis Detection Kit” protocol by Oncor, Inc. (Feb. 1995), which is based upon the labeling of fragmented DNA ends as described in Gavrieli. FIGS. 5(a-d) show a histological analysis wherein the stain has a peroxidase end point (brown) and a methyl green counter-stain. The resulting representations of this are provided in FIGS. 5(a&b) which are vehicle treated and FIGS. 5(c&d) which are trypsin treated.

Transglutaminase mRNA = assay: RT-PCR gene expression in skin, transglutaminase; assay type: in vivo, Rhino mouse; details: increasing concentrations of trypsin (0.0001-0.01% (w/v)) daily for five days
Experimental: Rhino mice of Example 1 were treated daily with trypsin compositions (0% (w/v), 0.0001% (w/v), 0.001% (w/v), and 0.01% (w/v)), as prepared in Example 2, for five days and sacrificed at day eight. The skins of vehicle treated mice and trypsin-treated mice were obtained as described in Example 3, then their total RNAs were extracted using “RNA Stat-60” reagent available from Tel-Test “B,” Inc. as described in Chomczymski, “Single Step Method of RNA Isolation By Acid Guanidinium Thiocyanate-phenol-chloroform extraction,” 162 Anal. Biochem. 156-59 (1987) which is incorporated herein by reference in its entirety. A sufficient amount of RNase-free DNase available from Promega, Corp. under the tradename “RQ1 RNase-free DNase” was then added to the extracted RNA from each mouse such that each respective product contained 200 ng of DNased-RNA using the procedure set forth in “RNase-free DNase” protocol published by Promega, Corp. (May, 1995). […]
The PCR products were then analyzed on 2% agarose/ethidium bromide gels according to methods well-known in the art in order to compare the level of expression of certain genes in skins of trypsin-treated and untreated mice. […]

- Transglutaminase mRNA level (Transglutaminase mRNA): reduced to below detection level
B1: trypsin (protein, UniProt P00760 24-246, looked up)
Serine protease 1: IVGGYTCGANTVPYQVSLNSGYHFCGGSLINSQWVVSAAHCYKSGIQVRLGEDNINVVEGNEQFISASKSIVHPSYNSNTLNNDIMLIKLKSAASLNSRVASISLPTSCASAGTQCLISGWGNTKSSGTSYPDVLKCLKAPILSDSSCKSAYPGQITSNMFCAGYLEGGKDSCQGDSGGPVVCSGKLQGIVSWGSGCAQKNKPGVYTKVCNYVSWIKQTIASN
notes: lyophilyzed trypsin from Sigma-Aldrich, a serine protease, in Hepes buffer mixed with GDL liposomes
- apoptotic bodies within the follicular epithelium (TUNEL) [1]: elimination of all the apoptotic bodies
